Measurements taken from patent publication US20240261333A1 (published 2024).

Key:
Test in all cases: anti-FLAG co-IP from lysate of N-FLAG B3GNT2 cells, mass spectrometry
[1] = target: T1, PDIA4 (human, UniProt P13667 21-645)
T1 construct: also called XP_006716248.1
T1 sequence (looked up): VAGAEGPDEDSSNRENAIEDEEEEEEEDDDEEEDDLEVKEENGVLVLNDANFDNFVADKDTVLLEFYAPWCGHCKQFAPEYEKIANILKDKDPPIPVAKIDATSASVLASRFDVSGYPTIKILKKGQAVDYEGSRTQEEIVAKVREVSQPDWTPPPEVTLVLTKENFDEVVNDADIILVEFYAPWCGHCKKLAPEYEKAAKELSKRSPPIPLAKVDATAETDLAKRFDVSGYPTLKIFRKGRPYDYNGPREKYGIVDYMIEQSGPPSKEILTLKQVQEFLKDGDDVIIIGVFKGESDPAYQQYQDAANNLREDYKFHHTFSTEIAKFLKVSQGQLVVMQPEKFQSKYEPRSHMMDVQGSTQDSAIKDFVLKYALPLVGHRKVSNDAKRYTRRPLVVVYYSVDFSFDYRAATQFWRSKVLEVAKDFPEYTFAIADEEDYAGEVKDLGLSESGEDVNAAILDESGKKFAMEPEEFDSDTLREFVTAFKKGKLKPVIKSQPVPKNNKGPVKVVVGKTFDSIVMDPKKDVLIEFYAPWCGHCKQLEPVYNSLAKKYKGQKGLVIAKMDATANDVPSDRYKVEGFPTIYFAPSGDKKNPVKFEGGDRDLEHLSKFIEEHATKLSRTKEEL
Method: (§1) Cells were plated in 10-cm cell culture dishes and grown to 60-80% confluency. For each condition, two biological replicates were harvested for co-IP. Cells were washed with PBS and 4 mL of lysis buffer (20 mM HEPES, 1% Triton X-100, 150 mM NaCl, 1 mM EDTA, and 10% glycerol) containing protease inhibitor cocktail was added. Cells were scraped and lysate was incubated at 4° C. under rotary agitation for 1 h. Lysate was centrifuged at 14,000×g for 10 min at 4° C. Supernatant was transferred to a new tube and an aliquot was taken as the input. […] For Western blots, 10 μg/mL Chicken Anti-FLAG (Aves labs ET-DY100) and IgY control (R&D Systems AB-101-C) antibodies were biotinylated (Thermo Fisher Scientific 90407) and added to the respective conditions. Lysates with antibodies were incubated at 4° C. under rotary agitation overnight. For each mL of lysate, 50 μL of Pierce Protein A/G Magnetic Beads (Mass spectrometry; Thermo Fisher Scientific 88803) or Pierce Streptavidin Magnetic Beads (Western blot; Thermo Fisher Scientific 88817) was washed twice with lysis buffer. Lysates with antibodies were added to the beads and incubated at 4° C. under rotary agitation for 4 h. Beads were washed with lysis buffer 3 times and resuspended in lysis buffer for storage.
(§2) Magnetic beads were resuspended in 100 mM Tris pH 7.8, reduced, alkylated and digested with trypsin at 37° ° C. overnight. This solution was subjected to solid phase extraction to concentrate the peptides and remove unwanted reagents followed by injection onto a Shimadzu HPLC with fraction collector. Eight fractions were collected and after concentration were injected on a Waters NanoAcquity HPLC equipped with a self-packed Aeris 3 μm C18 analytical column 0.075 mm by 20 cm, (Phenomenex). Peptides were eluted using standard reverse-phase gradients. The effluent from the column was analyzed using a Thermo Orbitrap Elite mass spectrometer (nanospray configuration) operated in a data dependent manner for 54 minutes. The resulting fragmentation spectra were correlated against the known database using Proteome Discover 1.4 (Thermo Fisher Scientific).

[2] = target: T2, NTPCR (human, UniProt Q9BSD7 2-190)
T2 construct: also called NP_001316381.1 (+2)
T2 sequence (looked up): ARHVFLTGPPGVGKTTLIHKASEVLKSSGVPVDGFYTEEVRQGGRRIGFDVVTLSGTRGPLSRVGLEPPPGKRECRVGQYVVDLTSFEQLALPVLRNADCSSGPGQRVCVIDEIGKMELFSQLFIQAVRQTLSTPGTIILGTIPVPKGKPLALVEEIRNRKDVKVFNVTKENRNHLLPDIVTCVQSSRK
Method: as §1, §2

[3] = target: T3, HDGFL2 (human, UniProt Q7Z4V5 1-671)
T3 construct: also called NP_001001520.1 (+4)
T3 sequence (Q7Z4V5 whole entry): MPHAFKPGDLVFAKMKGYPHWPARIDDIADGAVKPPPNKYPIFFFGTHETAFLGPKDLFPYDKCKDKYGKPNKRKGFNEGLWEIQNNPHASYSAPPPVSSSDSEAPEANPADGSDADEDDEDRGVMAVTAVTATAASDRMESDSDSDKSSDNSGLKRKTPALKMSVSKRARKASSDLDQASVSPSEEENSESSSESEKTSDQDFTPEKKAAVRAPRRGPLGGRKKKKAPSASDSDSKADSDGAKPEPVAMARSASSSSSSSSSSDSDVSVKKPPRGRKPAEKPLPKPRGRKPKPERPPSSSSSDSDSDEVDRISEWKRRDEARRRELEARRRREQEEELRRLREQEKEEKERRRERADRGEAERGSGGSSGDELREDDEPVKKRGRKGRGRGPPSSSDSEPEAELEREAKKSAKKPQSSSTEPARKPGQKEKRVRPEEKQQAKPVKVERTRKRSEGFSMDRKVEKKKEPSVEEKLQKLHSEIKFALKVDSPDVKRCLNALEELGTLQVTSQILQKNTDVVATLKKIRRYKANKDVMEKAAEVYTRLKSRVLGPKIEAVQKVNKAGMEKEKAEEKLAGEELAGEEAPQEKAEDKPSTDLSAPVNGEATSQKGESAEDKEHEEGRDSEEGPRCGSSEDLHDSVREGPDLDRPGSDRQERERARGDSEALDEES
Method: as §1, §2

co-IP mass spectrometry count [1]: 0 | co-IP mass spectrometry count [2]: 0 | co-IP mass spectrometry count [3]: 0
B1: N-terminal FLAG tagged B3GNT2 (enzyme, human, UniProt Q9NY97 1-397, looked up)
chain: MSVGRRRIKLLGILMMANVFIYFIMEVSKSSSQEKNGKGEVIIPKEKFWKISTPPEAYWNREQEKLNRQYNPILSMLTNQTGEAGRLSNISHLNYCEPDLRVTSVVTGFNNLPDRFKDFLLYLRCRNYSLLIDQPDKCAKKPFLLLAIKSLTPHFARRQAIRESWGQESNAGNQTVVRVFLLGQTPPEDNHPDLSDMLKFESEKHQDILMWNYRDTFFNLSLKEVLFLRWVSTSCPDTEFVFKGDDDVFVNTHHILNYLNSLSKTKAKDLFIGDVIHNAGPHRDKKLKYYIPEVVYSGLYPPYAGGGGFLYSGHLALRLYHITDQVHLYPIDDVYTGMCLQKLGLVPEKHKGFRTFDIEEKNKNNICSYVDLMLVHSRKPQEMIDIWSQLQSAHLKC
notes: Bait of the co-IP; pulled down from cell lysate with mouse anti-FLAG antibody; also called N-FLAG B3GNT2; N-term FLAG; not shown: N-terminal FLAG tag
